Several values for one entry are separate records, joined by “and”; a condition that tells them apart may be missing. Equal entries are not always repeated.

One experiment concerns the target T1, human NaPi2b (human, UniProt O95436 1-690).
T1 construct: whole, on cells; read as O95436; Detected by immunohistochemistry in tissue sections; also called SLC34A2; NaPiIIb
T1 sequence (looked up): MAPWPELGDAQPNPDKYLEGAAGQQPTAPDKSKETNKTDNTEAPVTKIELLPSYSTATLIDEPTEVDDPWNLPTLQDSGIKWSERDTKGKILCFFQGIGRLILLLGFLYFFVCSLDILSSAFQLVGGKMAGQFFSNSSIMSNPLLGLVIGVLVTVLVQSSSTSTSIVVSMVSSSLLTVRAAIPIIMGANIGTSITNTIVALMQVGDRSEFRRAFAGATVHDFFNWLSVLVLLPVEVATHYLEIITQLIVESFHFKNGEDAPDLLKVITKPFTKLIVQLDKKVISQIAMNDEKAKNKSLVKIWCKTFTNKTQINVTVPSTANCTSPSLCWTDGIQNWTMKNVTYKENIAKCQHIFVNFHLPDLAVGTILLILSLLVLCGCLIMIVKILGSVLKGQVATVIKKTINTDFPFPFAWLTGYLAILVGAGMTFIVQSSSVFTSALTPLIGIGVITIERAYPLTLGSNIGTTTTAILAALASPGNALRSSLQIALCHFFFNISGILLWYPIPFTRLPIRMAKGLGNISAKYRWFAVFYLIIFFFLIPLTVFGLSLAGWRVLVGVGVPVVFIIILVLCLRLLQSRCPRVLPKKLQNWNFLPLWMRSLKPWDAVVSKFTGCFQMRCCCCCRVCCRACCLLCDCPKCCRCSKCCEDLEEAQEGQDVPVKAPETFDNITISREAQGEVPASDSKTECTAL
As to the kind of experiment: immunohistochemistry, human lung tumor tissue microarray. Here is the method:
An immunohistochemical assay for MERS67 was established on a Leica BondRx Instrument. The assay was performed on tissue microarrays (TMA), including NSCLC and small cell lung cancer (SCLC) cell line arrays, and a NSCLC human tumor array. Tumors in the NSCLC array had previously been classified based on morphologic features only. All arrays were scored based on the H-score method.
To characterize the primary tumors further, the tumor TMA was stained with TTF-1 and p40, markers of ACA and squamous cell carcinoma (SCC), respectively. Results of this staining were compared to MERS67 staining patterns. H-Scores in the NSCLC cell line TMA ranged from 0-260, and from 0-100 in the small cell lung carcinoma (SCLC) TMA. Within the tissue microarray, 99 individual cases were evaluable. By morphologic classification 63 cases were SCC, and 23 cases were ACA. Using an arbitrary cut point of H=50, there was a statistically significant difference in the number of NaPi2b positive ACA cases (19/23) vs SCC (3/63). FIG. 13 is a box plot of the H scores derived from MERS67 IHC comparing SCC vs ACA, when these tumors were classified by morphology only.

Experiment [1] concerns the target T2, Human cyclized NaPi2b peptide (human).
T2 construct: also called Human NaPi2b peptide
As to the kind of experiment: ELISA on plate-coated human cyclized NaPi2b peptide, one site-specific binding fit. Here is the method:
Human cyclized NaPi2b peptide were generated and lyophilized covering the amino acids identified in the XMT-1535 epitope (New England Peptide, Gardner, Mass.). For the ELISA, the lyophilized NaPi2b peptide was reconstituted in DMSO. Human NaPi2b peptide was used to coat 96-Well high binding clear ELISA plates (Corning, 3369) at 1 μg/mL in sodium carbonate buffer, pH 9 to a total volume of 100 μl per well. After a 2-hour incubation, plates were washed 4 times with 100 μl per well TBS-Tween 20, blocked with 3% BSA in TBS-Tween 20 (100 μl per well) for 1 hour, and washed again. Test articles, MERS67 (Lot U0859BH and Lot U5569BL), XMT-1535, and the non-binding control (trastuzumab) were added to the wells at a dose concentration range from 100 nM to 0.002 nM using an […] 3-fold serial dilution in TBS-Tween 20 buffer at 100 μl per well. Plates were incubated for 1 hour with rocking then washed as above. […] The Optical Density (O.D.) was measured at 450 nm with a SpectraMax M5 microplate reader (Molecular Devices, Sunnyvale, Calif.). The O.D. for each treatment was graphed, and Kd calculated for each antibody with GraphPad Prism software (GraphPad Software Inc., La Jolla, Calif.) by non-linear regression using the one site-specific binding model.
A general note: ELISA stands for enzyme-linked immunosorbent assay.

B1: MERS67 (antibody, rabbit IgG1, V domains shown)
VH: QVQLVQSGAEVVKPGASVKMSCKASGYTFTGYNIHWVKQAPGQGLEWIGAIYPGNGDTSYKQKFRGRATLTADTSTSTVYMELSSLRSEDSAVYYCARGETARATFAYWGQGTLVTVSS
VL: DIQMTQSPSSLSASVGDRVTITCSASQDIGNFLNWYQQKPGKTVKVLIYYTSSLYSGVPSRFSGSGSGTDYTLTISSLQPEDFATYYCQQYSKLPLTFGQGTKLELKR
notes: XMT-1535 variable regions joined to the rabbit IgG1 constant region and the rabbit Ig kappa-b4 C region; Two lots tested: U0859BH (one-step purification) and U5696BL (two-step purification); also called MER67; chimeric NaPi2b antibody
Broadly, the Kd is the constant that tells how readily two partners part at equilibrium. High values mean a looser complex, low ones a tighter complex. On to B1, for which the binding result with human NaPi2b is reported as “binds”. In experiment [1], the Kd is 0.256 nM and 0.104 nM.

Source of the values: US20190160181A1 (MERSANA THERAPEUTICS, published 2019).
